# Experimental data reported in patent US20240294644A1 (BLUEFIN BIOMEDICINE, published 2024).
# T1: human VTCN1 expressed on cells (293-VTCN1 cells; SKBR3, MX-1 and ZR-75-1 cells that express it naturally) (human, UniProt Q7Z7D3 25-282)
# T1 construct: The cDNA was bought from Origene
# T1 sequence: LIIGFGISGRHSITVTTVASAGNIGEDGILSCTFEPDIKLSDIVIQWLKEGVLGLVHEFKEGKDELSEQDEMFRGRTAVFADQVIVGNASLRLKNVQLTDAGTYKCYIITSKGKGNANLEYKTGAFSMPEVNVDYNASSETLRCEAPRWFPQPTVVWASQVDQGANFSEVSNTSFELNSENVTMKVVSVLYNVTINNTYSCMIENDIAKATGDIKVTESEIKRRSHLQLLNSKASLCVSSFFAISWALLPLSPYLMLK
# T2: cynomolgus monkey VTCN1 protein (cynomolgus monkey, UniProt A0A2K5U6P5 25-259)
# T2 construct: The construct and its tag are not described; also called cyno VTCN1
# T2 sequence: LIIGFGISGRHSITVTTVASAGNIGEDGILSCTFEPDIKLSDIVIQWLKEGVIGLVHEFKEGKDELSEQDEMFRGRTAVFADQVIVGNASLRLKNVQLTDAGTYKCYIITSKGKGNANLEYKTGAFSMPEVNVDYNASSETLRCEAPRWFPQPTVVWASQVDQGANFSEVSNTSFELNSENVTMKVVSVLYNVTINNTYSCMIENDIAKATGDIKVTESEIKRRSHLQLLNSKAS
# T3: recombinant human VTCN1-his protein (human, UniProt Q7Z7D3 25-259, limits assumed)
# T3 construct: also called human VTCN1 protein; recombinant VTCN1
# T3 sequence: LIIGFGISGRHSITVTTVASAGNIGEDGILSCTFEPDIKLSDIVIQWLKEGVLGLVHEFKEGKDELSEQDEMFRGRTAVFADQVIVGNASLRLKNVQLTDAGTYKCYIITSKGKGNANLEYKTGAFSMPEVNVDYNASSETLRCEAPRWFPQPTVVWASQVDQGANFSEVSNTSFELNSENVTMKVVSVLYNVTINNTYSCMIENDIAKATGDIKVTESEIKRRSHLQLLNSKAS
# Target: T1, human VTCN1 expressed on cells …
# Test: flow cytometry on live 293-VTCN1 and MX-1 cells, 0.05-10 ug/ml
row,binding result,Binder
1,binds,"3C6 (antibody, V domains shown, Recombinant mouse antibody made in CHO cells) VH: QIQLQESGPELKKPGETVKISCKASGYTFTTTGMQWVQKMPGKGFKWIGWINTHSGEPKYADDFKGRFAFSLETSASTAHLQISNLKNEDTATYFCARTSYWYLDVWGAGTTVTVSS VL: DIVMTQSQKFMSTSVGDRVSVTCKASQIVGTNIAWYQQKPGQSPKALIYSASYRNSGVPDRFTGSGSGTDFTLTITNVQSEDLAEYFCQQYNSYPLTFGAGTKLEIK"
2,binds,"2C2 (antibody, V domains shown, Recombinant mouse antibody made in CHO cells) VH: QIQLQQSGPELKKPGETVKISCKASGYTFTTAGMQWVQKMPGKGFKWLGWINTHSGEPKYADDFKGRFAFSLETSASTAYLQINNLKNEDTATYHCARTSYWYLDIWGAGTTVTVSS VL: DIVMTQSQKFMSTSVGDRVSVTCKASQNVGTNVAWYQQKPGQSPKALIYSASYRCSGVPDRFTGSGSGTDFTLTISNVQSEDLAEYFCQQYNSYPLTFGAGTKLEIK"
3,binds,"7E12 (antibody, V domains shown, Recombinant mouse antibody made in CHO cells) VH: QVQMKESGPELKKPGETVKISCKASGYTFTTTGMQWVQKMPGKGFKWIGWINTHSGEPKYADDFKGRFAFSLETSASTAHLQISNLKNEDTATYFCARTSYWYLDVWGAGTTVTVSS VL: DIVMTQSQKFMSTSVGDRVSVTCKASQIVGTNIAWYQQKPGQSPKALIYSASYRNSGVPDRFTGSGSGTDFTLTITNVQSEDLAEYFCQQYNSYPLTFGAGTKLEIK"
4,binds,"7C9 (antibody, V domains shown, Recombinant mouse antibody made in CHO cells) VH: QIQLQESGPGLVQPSQSLSITCTVSGFSLTSYGVQWVRQSPGKGLEWLGVIWSSGSTDYNAAFISRLSISKDNSKSQVFFKMNSLQADDTAIYYCARDITTIVEGFAYWGQGTLVTVSA VL: NIVMTQSPKSMSMSVGERVTLRCKASENVNTYVSWYQQKPEQSPKLLIYGASNRYTGVPDRFTGSGSATDFTLTISSVQAEDLADYHCGQSYSYPFTFGSGTKLEIK"
5,binds,"1F8 (antibody, V domains shown, Recombinant mouse antibody made in CHO cells; also called 1F8C6) VH: QMQLKESGPGLVQPSQSLSITCTVSGFSLTSYGVQWVRQFSGKGLEWLGVIWSSGSTDYNAAFISRLSISKDNSKSQVFFKMNSLQPDDTAMYYCARDITTIVEGFAYWGQGTLVTVSA VL: IIVMTQSPKSMSMSVGERVTLSCKASENVGTYVSWYQQKPEQSPKLLIYGASNRYTGVPDRFTGSGSATDFTLTISSVQAEDLADYHCGQSYSYPFTFGSGTKLEIKR"
6,binds,"9H12 (antibody, V domains shown, Recombinant mouse antibody made in CHO cells) VH: QIQLQESGPGLVQPSQSLSITCTVSGFSLTSYGVQWVRQSPGKGLEWLGVIWSGGSTDYNAAFISRLSISKDNSKSQVFFKMNSLQADDTAIYYCARDITTIVEGFAHWGQGTLVTVSA VL: NIVMTQSPKSMSMSVGERVTLSCKASEKVGTYVSWYQQKPEQSPKLLIYGASNRYTGVPDRFTGSGSATDFTLTISSVQAEDLADYHCGQSYSYPFTFGSGTKLEIK"
7,binds,"7G9 (antibody, V domains shown, Recombinant mouse antibody made in CHO cells) VH: QVQMQESGPGLVQPSQSLSITCTVSGFSLTSYGVQWVRQSPGKGLQWLGVIWSSGSTDYNAAVISRLSISKDTSKSQVFFKMNSLQPDDTAIYYCARDITTIVEGFAYWGQGTLVTVSS VL: IIVMTQSPKSMSMSVGERVTLSCKASENVGTYVSWYQQKPEQSPKLLIYGASNRYTGVPDRFTGSGSATDFTLTISSVQAEDLADYHCGQSYSYPFTFGSGTKLEIK"
8,binds,"8G3 (antibody, V domains shown, Recombinant mouse antibody made in CHO cells) VH: QIQLQESGPGLVQPSQSLSITCTVSGFSLTSYGVHWVRQSPGKGLEWLGVIWSSGSTDYNAAFISRLSISKDNSRSQVFFKMNSLQPDDTAIYYCARDITTIVEGFAYWAQGTLVTVSA VL: NVVMTQSPKSMSMSVGERVTLICKASENVGTYVSWYQQKPEQSPKLLIYGASNRYTGVPDRFTGSGSATDFTLTISSVQAEDLADYHCGQTYSYPFAFGSGTKLEIK"
9,binds,"1C3 (antibody, V domains shown, Recombinant mouse antibody made in CHO cells) VH: QIQLQQSGPGLVQPSQSLSITCTVSGFSLTSYGVQWVRQSPGKGLEWLGVIWSSGNTDYNAAFISRLTITKDNSKSQIFFKMNSLQADDTAIYYCARDITTIVEGFAYWGQGTLVTVSA VL: NIVMTQSPKSMSMSVGERVTLSCKASENVGTYVSWYQQKPEQSPKLLIYGASNRYTGVPDRFTGSGSATDFTLTISSVQAEDLADYHCGQTYSYPFTFGSGTKLEIK"
10,binds,"7D9 (antibody, V domains shown, Recombinant mouse antibody made in CHO cells) VH: QIQLKESGPGLVQPSQSLSITCTVSGFSLTSYGVQWVRQSPGKGLEWLGVIWSGGSTDYNAAFISRLSISKDNSKSQVFFKMNSLQADDTAIYYCARDITTIVEGFAYWAQGTLVTVSA VL: NIVMTQSPKSMSMSVGERVTLSCKASENVGTYVSWYQQKPEQSPKLLIYGASNRYTGVPDRFTGSGSATDFTLTISSVQAEDLADYHCGQTYSYPFTFGSGTKLEIK"
11,binds,"1A2 (antibody, V domains shown, Recombinant mouse antibody made in CHO cells) VH: QVQLQQSGPGLVQPSQSLSITCTVSGFSLTSYGVHWVRQSPGKGLEWLGVIWSGGSTDYNAAFISRLSISKDNSKSQVFFKMNSLQADDTAIYYCARDITTIVEGFAYWGQGTLVTVSA VL: NIVMTQSPKSMSMSVGERVTLSCKASENVGTYVSWYQQKPEQSPKLLIYGASNRYTGVPDRFTGSGSATDFTLTISSVQAEDVTDYHCGQTYSYPFTFGSGTKLEIK"
12,binds,"4B9 (antibody, V domains shown, Recombinant mouse antibody made in CHO cells) VH: EVQLQESGPGLVQPSQSLSITCTVSGFSLTSYGVHWVRQSPGKGLEWLGVIWSSGSTDYNAAFISRLSISKDNSKSQVFFKIHSLQADDTAIYYCARDITTIVEGFAYWAQGTLVTVSA VL: NIVMTQSPKSMSMSVGERVTLICKASENVGTYVSWYQQKPEQSPKLLIYGASNRYTGVPDRFTGSGSATDFTLTISSVQAEDLADYHCGQTYSYPFTFGSGTKLEIK"
13,binds,"9H7 (antibody, V domains shown, Recombinant mouse antibody made in CHO cells) VH: QVQLQESGPELVKPGASVKLSCKASGYSFTDYTMHWVKQSPGQGLEWIGWIYPGSGNTMYNDKFKGEATMTADKSSSTTYMQLSSLTSEDSAVYFCARGGDSIITVFPFTYWGQGTLVTVSA VL: not shown"

# Target: T2, cynomolgus monkey VTCN1 protein
# Test: BLI (OCTET Red), antibody on Protein A biosensor, cyno VTCN1
row,Kd,Binder
1,2 nM,"3D11 (antibody, V domains shown, Recombinant mouse antibody made in CHO cells) VH: QVQLQQPGAELVKPGASVKLSCKASGYSFTSYWMNWVKQRPGRGLEWIGRIHPSDSETHYNQNFKSKATLTVDKSSSTAYIQLNSLTSEDSAVYYCARPYYFYGSSPYAMDYWGQGASVTVSS VL: DVVMTQTPLSLPVSLGDQASISCRSSQSIVHSNGNTYLEWYLQKPGQSPKLLIYKVSNRFSGVPDRFSGSGSGTDFTFKISRVEAEDLGVYYCFQGSHVPYTFGGGTKLEIK"
2,14 nM,"3G10 (antibody, V domains shown, Recombinant mouse antibody made in CHO cells) VH: QIQLKESGPGLVQPSQSLSITCTVSGFSLTSYGVHWVRQSPGKGLEWLGVIWSGGYTDYNSAFISRLSISKDNSKSQVFFKMNSLQADDTAIYYCARDITTIVEGFAYWGQGTLVTVSA VL: IIVMTQSPKSMSMSVGERITLNCKASENVGTYVSWYQQKPEQSPKLLIYGASNRYTGVPDHFTGSGSATDFTLTISSVQAEDLADYHCGQTYSYPFTFGSGTKLEIK"
3,19 nM,"6E2 (antibody, V domains shown, Recombinant mouse antibody made in CHO cells) VH: QIQLQESGPGLVQPSQSLSITCTVSGFSLTSYGVQWVRQSPGKGLEWLGVIWSGGSTDYNAAFISRLSISKDNSKSQVFFKMNSLQADDTAIYYCARDISTIVEGFAHWGQGTLVTVSS VL: NIVMTQSPKSMSMSVGERVTLSCKASEKVGTYVSWYQQKPEQSPKLLIYGASNRYTGVPDRFTGSGSATDFTLTISSVQAEDLADYHCGQSYRYPFTFGSGTKLEIK"

# Target: T3, recombinant human VTCN1-his protein
# Test: BLI (OCTET Red), antibody on Protein A biosensor, recombinant VTCN1-his in solution
row,Kd,Binder
1,6 nM,"3D11 (antibody, V domains shown, Recombinant mouse antibody made in CHO cells) VH: QVQLQQPGAELVKPGASVKLSCKASGYSFTSYWMNWVKQRPGRGLEWIGRIHPSDSETHYNQNFKSKATLTVDKSSSTAYIQLNSLTSEDSAVYYCARPYYFYGSSPYAMDYWGQGASVTVSS VL: DVVMTQTPLSLPVSLGDQASISCRSSQSIVHSNGNTYLEWYLQKPGQSPKLLIYKVSNRFSGVPDRFSGSGSGTDFTFKISRVEAEDLGVYYCFQGSHVPYTFGGGTKLEIK"
2,12 nM,"3G10 (antibody, V domains shown, Recombinant mouse antibody made in CHO cells) VH: QIQLKESGPGLVQPSQSLSITCTVSGFSLTSYGVHWVRQSPGKGLEWLGVIWSGGYTDYNSAFISRLSISKDNSKSQVFFKMNSLQADDTAIYYCARDITTIVEGFAYWGQGTLVTVSA VL: IIVMTQSPKSMSMSVGERITLNCKASENVGTYVSWYQQKPEQSPKLLIYGASNRYTGVPDHFTGSGSATDFTLTISSVQAEDLADYHCGQTYSYPFTFGSGTKLEIK"
3,8 nM,"6E2 (antibody, V domains shown, Recombinant mouse antibody made in CHO cells) VH: QIQLQESGPGLVQPSQSLSITCTVSGFSLTSYGVQWVRQSPGKGLEWLGVIWSGGSTDYNAAFISRLSISKDNSKSQVFFKMNSLQADDTAIYYCARDISTIVEGFAHWGQGTLVTVSS VL: NIVMTQSPKSMSMSVGERVTLSCKASEKVGTYVSWYQQKPEQSPKLLIYGASNRYTGVPDRFTGSGSATDFTLTISSVQAEDLADYHCGQSYRYPFTFGSGTKLEIK"
